This note sets out measurements from paper PMC4033627.

Experiment [1] has as its target catalytic domain of Sst2 (residues 245–435), Sst2^cat (S. pombe) (UniProt Q9P371). Description: ITC. (In ITC the heat of successive injections is recorded.)
Experiment [2] concerns the target Sst2^catD354A (Asp354Ala mutant of the catalytic domain of Sst2) (S. pombe) (UniProt Q9P371). The experiment in a line: ITC.

Sst2^catD354A (Asp354Ala mutant of the catalytic domain of Sst2) (S. pombe), sequence (Q9P371 245-435 D354A): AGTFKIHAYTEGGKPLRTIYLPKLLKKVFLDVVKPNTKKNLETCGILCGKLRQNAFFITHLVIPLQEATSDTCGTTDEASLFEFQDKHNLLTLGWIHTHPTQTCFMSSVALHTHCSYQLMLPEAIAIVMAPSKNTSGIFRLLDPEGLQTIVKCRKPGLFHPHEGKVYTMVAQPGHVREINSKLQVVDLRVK
catalytic domain of Sst2 (residues 245–435), Sst2^cat (S. pombe), sequence (Q9P371 245-435): as the sequence (Q9P371 245-435 D354A) above, with A110D counted along it

As for “ubiquitin (from a pRSETA plasmid, for isothermal titration calorimetry) (from UniProt P0CG48 1-76) (natural protein)”, in experiment [1], the dH was 11.9 kcal/mol.

Broadly, the Kd is the constant that tells how readily two partners part at equilibrium. Read a high Kd as weaker binding. In experiment [2], “Lys63-linked diubiquitin, enzymatically synthesized from Lys63Arg and Asp77 ubiquitin mutants” came in with a Kd of 1100 nM and a dH of 11.8 kcal/mol.
